Blank lines part the entries; values can stand above or below the binder they belong to.
Target: 46w60 nucleosome (recombinant human histone octamer on Widom 601 DNA with 46-bp and 60-bp flanks), … (human, UniProt P0C0S8 1-130; P62807 1-126; P68431 1-136; P62805 1-103)
Assay: MST

B2: CHD4(1–1230) (domain or fragment)
chain: MASGLGSPSPCSAGSEEEDMDALLNNSLPPPHPENEEDPEEDLSETETPKLKKKKKPKKPRDPKIPKSKRQKKERMLLCRQLGDSSGEGPEFVEEEEEVALRSDSEGSDYTPGKKKKKKLGPKKEKKSKSKRKEEEEEEDDDDDSKEPKSSAQLLEDWGMEDIDHVFSEEDYRTLTNYKAFSQFVRPLIAAKNPKIAVSKMMMVLGAKWREFSTNNPFKGSSGASVAAAAAAAVAVVESMVTATEVAPPPPPVEVPIRKAKTKEGKGPNARRKPKGSPRVPDAKKPKPKKVAPLKIKLGGFGSKRKRSSSEDDDLDVESDFDDASINSYSVSDGSTSRSSRSRKKLRTTKKKKKGEEEVTAVDGYETDHQDYCEVCQQGGEIILCDTCPRAYHMVCLDPDMEKAPEGKWSCPHCEKEGIQWEAKEDNSEGEEILEEVGGDLEEEDDHHMEFCRVCKDGGELLCCDTCPSSYHIHCLNPPLPEIPNGEWLCPRCTCPALKGKVQKILIWKWGQPPSPTPVPRPPDADPNTPSPKPLEGRPERQFFVKWQGMSYWHCSWVSELQLELHCQVMFRNYQRKNDMDEPPSGDFGGDEEKSRKRKNKDPKFAEMEERFYRYGIKPEWMMIHRILNHSVDKKGHVHYLIKWRDLPYDQASWESEDVEIQDYDLFKQSYWNHRELMRGEEGRPGKKLKKVKLRKLERPPETPTVDPTVKYERQPEYLDATGGTLHPYQMEGLNWLRFSWAQGTDTILADEMGLGKTVQTAVFLYSLYKEGHSKGPFLVSAPLSTIINWEREFEMWAPDMYVVTYVGDKDSRAIIRENEFSFEDNAIRGGKKASRMKKEASVKFHVLLTSYELITIDMAILGSIDWACLIVDEAHRLKNNQSKFFRVLNGYSLQHKLLLTGTPLQNNLEELFHLLNFLTPERFHNLEGFLEEFADIAKEDQIKKLHDMLGPHMLRRLKADVFKNMPSKTELIVRVELSPMQKKYYKYILTRNFEALNARGGGNQVSLLNVVMDLKKCCNHPYLFPVAAMEAPKMPNGMYDGSALIRASGKLLLLQKMLKNLKEGGHRVLIFSQMTKMLDLLEDFLEHEGYKYERIDGGITGNMRQEAIDRFNAPGAQQFCFLLSTRAGGLGINLATADTVIIYDSDWNPHNDIQAFSRAHRIGQNKKVMIYRFVTRASVEERITQVAKKKMMLTHLVVRPGLGSKTGSMSKQELDDILKFGTEELFKDE
Kd: 250 nM

B3: CHD4(1–1380) (domain or fragment)
chain: MASGLGSPSPCSAGSEEEDMDALLNNSLPPPHPENEEDPEEDLSETETPKLKKKKKPKKPRDPKIPKSKRQKKERMLLCRQLGDSSGEGPEFVEEEEEVALRSDSEGSDYTPGKKKKKKLGPKKEKKSKSKRKEEEEEEDDDDDSKEPKSSAQLLEDWGMEDIDHVFSEEDYRTLTNYKAFSQFVRPLIAAKNPKIAVSKMMMVLGAKWREFSTNNPFKGSSGASVAAAAAAAVAVVESMVTATEVAPPPPPVEVPIRKAKTKEGKGPNARRKPKGSPRVPDAKKPKPKKVAPLKIKLGGFGSKRKRSSSEDDDLDVESDFDDASINSYSVSDGSTSRSSRSRKKLRTTKKKKKGEEEVTAVDGYETDHQDYCEVCQQGGEIILCDTCPRAYHMVCLDPDMEKAPEGKWSCPHCEKEGIQWEAKEDNSEGEEILEEVGGDLEEEDDHHMEFCRVCKDGGELLCCDTCPSSYHIHCLNPPLPEIPNGEWLCPRCTCPALKGKVQKILIWKWGQPPSPTPVPRPPDADPNTPSPKPLEGRPERQFFVKWQGMSYWHCSWVSELQLELHCQVMFRNYQRKNDMDEPPSGDFGGDEEKSRKRKNKDPKFAEMEERFYRYGIKPEWMMIHRILNHSVDKKGHVHYLIKWRDLPYDQASWESEDVEIQDYDLFKQSYWNHRELMRGEEGRPGKKLKKVKLRKLERPPETPTVDPTVKYERQPEYLDATGGTLHPYQMEGLNWLRFSWAQGTDTILADEMGLGKTVQTAVFLYSLYKEGHSKGPFLVSAPLSTIINWEREFEMWAPDMYVVTYVGDKDSRAIIRENEFSFEDNAIRGGKKASRMKKEASVKFHVLLTSYELITIDMAILGSIDWACLIVDEAHRLKNNQSKFFRVLNGYSLQHKLLLTGTPLQNNLEELFHLLNFLTPERFHNLEGFLEEFADIAKEDQIKKLHDMLGPHMLRRLKADVFKNMPSKTELIVRVELSPMQKKYYKYILTRNFEALNARGGGNQVSLLNVVMDLKKCCNHPYLFPVAAMEAPKMPNGMYDGSALIRASGKLLLLQKMLKNLKEGGHRVLIFSQMTKMLDLLEDFLEHEGYKYERIDGGITGNMRQEAIDRFNAPGAQQFCFLLSTRAGGLGINLATADTVIIYDSDWNPHNDIQAFSRAHRIGQNKKVMIYRFVTRASVEERITQVAKKKMMLTHLVVRPGLGSKTGSMSKQELDDILKFGTEELFKDEATDGGGDNKEGEDSSVIHYDDKAIERLLDRNQDETEDTELQGMNEYLSSFKVAQYVVREEEMGEEEEVEREIIKQEESVDPDYWEKLLRHHYEQQQEDLARNLGKGKRIRKQVNYNDGSQEDRDWQDDQSDNQSDYSVASEEGDEDFDER
Kd: 430 nM

These reach a lower Kd. Values come first.

Kd: 210 nM
B1: CHD4(1–1540) (domain or fragment)
chain: MASGLGSPSPCSAGSEEEDMDALLNNSLPPPHPENEEDPEEDLSETETPKLKKKKKPKKPRDPKIPKSKRQKKERMLLCRQLGDSSGEGPEFVEEEEEVALRSDSEGSDYTPGKKKKKKLGPKKEKKSKSKRKEEEEEEDDDDDSKEPKSSAQLLEDWGMEDIDHVFSEEDYRTLTNYKAFSQFVRPLIAAKNPKIAVSKMMMVLGAKWREFSTNNPFKGSSGASVAAAAAAAVAVVESMVTATEVAPPPPPVEVPIRKAKTKEGKGPNARRKPKGSPRVPDAKKPKPKKVAPLKIKLGGFGSKRKRSSSEDDDLDVESDFDDASINSYSVSDGSTSRSSRSRKKLRTTKKKKKGEEEVTAVDGYETDHQDYCEVCQQGGEIILCDTCPRAYHMVCLDPDMEKAPEGKWSCPHCEKEGIQWEAKEDNSEGEEILEEVGGDLEEEDDHHMEFCRVCKDGGELLCCDTCPSSYHIHCLNPPLPEIPNGEWLCPRCTCPALKGKVQKILIWKWGQPPSPTPVPRPPDADPNTPSPKPLEGRPERQFFVKWQGMSYWHCSWVSELQLELHCQVMFRNYQRKNDMDEPPSGDFGGDEEKSRKRKNKDPKFAEMEERFYRYGIKPEWMMIHRILNHSVDKKGHVHYLIKWRDLPYDQASWESEDVEIQDYDLFKQSYWNHRELMRGEEGRPGKKLKKVKLRKLERPPETPTVDPTVKYERQPEYLDATGGTLHPYQMEGLNWLRFSWAQGTDTILADEMGLGKTVQTAVFLYSLYKEGHSKGPFLVSAPLSTIINWEREFEMWAPDMYVVTYVGDKDSRAIIRENEFSFEDNAIRGGKKASRMKKEASVKFHVLLTSYELITIDMAILGSIDWACLIVDEAHRLKNNQSKFFRVLNGYSLQHKLLLTGTPLQNNLEELFHLLNFLTPERFHNLEGFLEEFADIAKEDQIKKLHDMLGPHMLRRLKADVFKNMPSKTELIVRVELSPMQKKYYKYILTRNFEALNARGGGNQVSLLNVVMDLKKCCNHPYLFPVAAMEAPKMPNGMYDGSALIRASGKLLLLQKMLKNLKEGGHRVLIFSQMTKMLDLLEDFLEHEGYKYERIDGGITGNMRQEAIDRFNAPGAQQFCFLLSTRAGGLGINLATADTVIIYDSDWNPHNDIQAFSRAHRIGQNKKVMIYRFVTRASVEERITQVAKKKMMLTHLVVRPGLGSKTGSMSKQELDDILKFGTEELFKDEATDGGGDNKEGEDSSVIHYDDKAIERLLDRNQDETEDTELQGMNEYLSSFKVAQYVVREEEMGEEEEVEREIIKQEESVDPDYWEKLLRHHYEQQQEDLARNLGKGKRIRKQVNYNDGSQEDRDWQDDQSDNQSDYSVASEEGDEDFDERSEAPRRPSRKGLRNDKDKPLPPLLARVGGNIEVLGFNARQRKAFLNAIMRYGMPPQDAFTTQWLVRDLRGKSEKEFKAYVSLFMRHLCEPGADGAETFADGVPREGLSRQHVLTRIGVMSLIRKKVQEFEHVNGRWSMPELAEVEENKKMSQPGSPSPKT

Kd: 150 nM
B4: CHD4(1–1810) (domain or fragment)
chain: MASGLGSPSPCSAGSEEEDMDALLNNSLPPPHPENEEDPEEDLSETETPKLKKKKKPKKPRDPKIPKSKRQKKERMLLCRQLGDSSGEGPEFVEEEEEVALRSDSEGSDYTPGKKKKKKLGPKKEKKSKSKRKEEEEEEDDDDDSKEPKSSAQLLEDWGMEDIDHVFSEEDYRTLTNYKAFSQFVRPLIAAKNPKIAVSKMMMVLGAKWREFSTNNPFKGSSGASVAAAAAAAVAVVESMVTATEVAPPPPPVEVPIRKAKTKEGKGPNARRKPKGSPRVPDAKKPKPKKVAPLKIKLGGFGSKRKRSSSEDDDLDVESDFDDASINSYSVSDGSTSRSSRSRKKLRTTKKKKKGEEEVTAVDGYETDHQDYCEVCQQGGEIILCDTCPRAYHMVCLDPDMEKAPEGKWSCPHCEKEGIQWEAKEDNSEGEEILEEVGGDLEEEDDHHMEFCRVCKDGGELLCCDTCPSSYHIHCLNPPLPEIPNGEWLCPRCTCPALKGKVQKILIWKWGQPPSPTPVPRPPDADPNTPSPKPLEGRPERQFFVKWQGMSYWHCSWVSELQLELHCQVMFRNYQRKNDMDEPPSGDFGGDEEKSRKRKNKDPKFAEMEERFYRYGIKPEWMMIHRILNHSVDKKGHVHYLIKWRDLPYDQASWESEDVEIQDYDLFKQSYWNHRELMRGEEGRPGKKLKKVKLRKLERPPETPTVDPTVKYERQPEYLDATGGTLHPYQMEGLNWLRFSWAQGTDTILADEMGLGKTVQTAVFLYSLYKEGHSKGPFLVSAPLSTIINWEREFEMWAPDMYVVTYVGDKDSRAIIRENEFSFEDNAIRGGKKASRMKKEASVKFHVLLTSYELITIDMAILGSIDWACLIVDEAHRLKNNQSKFFRVLNGYSLQHKLLLTGTPLQNNLEELFHLLNFLTPERFHNLEGFLEEFADIAKEDQIKKLHDMLGPHMLRRLKADVFKNMPSKTELIVRVELSPMQKKYYKYILTRNFEALNARGGGNQVSLLNVVMDLKKCCNHPYLFPVAAMEAPKMPNGMYDGSALIRASGKLLLLQKMLKNLKEGGHRVLIFSQMTKMLDLLEDFLEHEGYKYERIDGGITGNMRQEAIDRFNAPGAQQFCFLLSTRAGGLGINLATADTVIIYDSDWNPHNDIQAFSRAHRIGQNKKVMIYRFVTRASVEERITQVAKKKMMLTHLVVRPGLGSKTGSMSKQELDDILKFGTEELFKDEATDGGGDNKEGEDSSVIHYDDKAIERLLDRNQDETEDTELQGMNEYLSSFKVAQYVVREEEMGEEEEVEREIIKQEESVDPDYWEKLLRHHYEQQQEDLARNLGKGKRIRKQVNYNDGSQEDRDWQDDQSDNQSDYSVASEEGDEDFDERSEAPRRPSRKGLRNDKDKPLPPLLARVGGNIEVLGFNARQRKAFLNAIMRYGMPPQDAFTTQWLVRDLRGKSEKEFKAYVSLFMRHLCEPGADGAETFADGVPREGLSRQHVLTRIGVMSLIRKKVQEFEHVNGRWSMPELAEVEENKKMSQPGSPSPKTPTPSTPGDTQPNTPAPVPPAEDGIKIEENSLKEEESIEGEKEVKSTAPETAIECTQAPAPASEDEKVVVEPPEGEEKVEKAEVKERTEEPMETEPKGAADVEKVEEKSAIDLTPIVVEDKEEKKEEEEKKEVMLQNGETPKDLNDEKQKKNIKQRFMFNIADGGFTELHSLWQNEERAATVTKKTYEIWHRRHDYWLLAGIINHGYARWQDIQNDPRYAILNEPFKGEMNRGNFLEIKNKFLARRFKLLEQALVIEEQLRRAAYLNMSED

— PMC9726900 (2022)
